Legend:
[1] = tested on: Pgi with HRV 3C recognition sequence inserted after amino acid 109
[2] = tested on: Pgi with HRV 3C recognition sequence inserted after amino acid 110
[3] = tested on: Pta variant with HRV protease cleavage motif inserted after amino acid 382
[4] = tested on: Pgi with HRV 3C recognition sequence inserted after amino acid 531
[5] = tested on: Pgi with HRV 3C recognition sequence inserted after amino acid 530
[6] = tested on: Pgi with HRV 3C recognition sequence inserted after amino acid 529
[7] = tested on: Pgi with HRV 3C recognition sequence inserted after amino acid 528
[8] = tested on: Pgi with HRV 3C recognition sequence inserted after amino acid 532
[9] = tested on: Pgi with HRV 3C recognition sequence inserted after amino acid 108
[10] = tested on: wild-type Pgi protein (phosphoglucose isomerase of Escherichia coli)
[11] = tested on: Pgi with HRV 3C recognition sequence inserted after amino acid 527
[12] = tested on: Pgi with HRV 3C recognition sequence inserted after amino acid 410
[13] = tested on: Pta variant with HRV protease cleavage motif inserted after amino acid 381
[14] = tested on: Pgi with HRV 3C recognition sequence inserted after amino acid 138
[15] = tested on: Pta variant with HRV protease cleavage motif inserted after amino acid 387
[16] = tested on: Pta variant with HRV protease cleavage motif inserted after amino acid 409
[17] = tested on: Pgi-HRV-I526 (Pgi with HRV 3C recognition sequence inserted after amino acid 526)

Substance: exogenous HRV 3C protease (ACCELAGEN H0101S)
- Pgi Activity/Activity wild type, +protease; -protease value 1.10 [1]: 0.78
- Pgi activity in clarified lysate, +protease (10 units exogenous HRV 3C protease, 4 h, 37 C); -protease value 2.54 (µmol/min/mg total protein) [1]: 1.86
- Pgi Activity/Activity wild type, +protease; -protease value 0.92 [2]: 0.84
- Pgi activity in clarified lysate, +protease (10 units exogenous HRV 3C protease, 4 h, 37 C); -protease value 2.13 (µmol/min/mg total protein) [2]: 1.99
- in vitro Pta activity with or without exogenously supplied HRV protease, 30 minutes at 37 C [3]: In all cases, Pta activity was dramatically reduced upon incubation with HRV protease.
- Pgi Activity/Activity wild type, +protease; -protease value 0.56 [4]: 0.28
- Pgi activity in clarified lysate, +protease (10 units exogenous HRV 3C protease, 4 h, 37 C); -protease value 1.29 (µmol/min/mg total protein) [4]: 0.67
- Pgi Activity/Activity wild type, +protease; -protease value 0.33 [5]: 0.12
- Pgi activity in clarified lysate, +protease (10 units exogenous HRV 3C protease, 4 h, 37 C); -protease value 0.77 (µmol/min/mg total protein) [5]: 0.29
- Pgi Activity/Activity wild type, +protease; -protease value 0.64 [6]: 0.5
- Pgi activity in clarified lysate, +protease (10 units exogenous HRV 3C protease, 4 h, 37 C); -protease value 1.48 (µmol/min/mg total protein) [6]: 1.19
- Pgi Activity/Activity wild type, +protease; -protease value 0.45 [7]: 0.26
- Pgi activity in clarified lysate, +protease (10 units exogenous HRV 3C protease, 4 h, 37 C); -protease value 1.04 (µmol/min/mg total protein) [7]: 0.63
- Pgi Activity/Activity wild type, +protease; -protease value 0.50 [8]: 0.22
- Pgi activity in clarified lysate, +protease (10 units exogenous HRV 3C protease, 4 h, 37 C); -protease value 1.15 (µmol/min/mg total protein) [8]: 0.52
- Pgi Activity/Activity wild type, +protease; -protease value 0.94 [9]: 0.86
- Pgi activity in clarified lysate, +protease (10 units exogenous HRV 3C protease, 4 h, 37 C); -protease value 2.16 (µmol/min/mg total protein) [9]: 2.03
- Pgi Activity/Activity wild type, +protease; -protease value 1 [10]: 1
- Pgi activity in clarified lysate, +protease (10 units exogenous HRV 3C protease, 4 h, 37 C); -protease value 2.31 (µmol/min/mg total protein) [10]: 2.37
- Pgi Activity/Activity wild type, +protease; -protease value 0.84 [11]: 0.6
- Pgi activity in clarified lysate, +protease (10 units exogenous HRV 3C protease, 4 h, 37 C); -protease value 1.93 (µmol/min/mg total protein) [11]: 1.42
- Pgi Activity/Activity wild type, +protease; -protease value 0.50 [12]: 0.41
- Pgi activity in clarified lysate, +protease (10 units exogenous HRV 3C protease, 4 h, 37 C); -protease value 1.16 (µmol/min/mg total protein) [12]: 0.96
- in vitro Pta activity with or without exogenously supplied HRV protease, 30 minutes at 37 C [13]: In all cases, Pta activity was dramatically reduced upon incubation with HRV protease.
- Pgi Activity/Activity wild type, +protease; -protease value 0.27 [14]: 0.16
- Pgi activity in clarified lysate, +protease (10 units exogenous HRV 3C protease, 4 h, 37 C); -protease value 0.62 (µmol/min/mg total protein) [14]: 0.37
- in vitro Pta activity with or without exogenously supplied HRV protease, 30 minutes at 37 C [15]: In all cases, Pta activity was dramatically reduced upon incubation with HRV protease.
- in vitro Pta activity with or without exogenously supplied HRV protease, 30 minutes at 37 C [16]: In all cases, Pta activity was dramatically reduced upon incubation with HRV protease.
- Pgi Activity/Activity wild type, +protease; -protease value 0.83 [17]: 0.19
- Pgi activity in clarified lysate, +protease (10 units exogenous HRV 3C protease, 4 h, 37 C); -protease value 1.92 (µmol/min/mg total protein) [17]: 0.44
